{"source": "paper PMC11519228", "about": "“Sugar alcohol degradation in Archaea: uptake and degradation of mannitol and sorbitol in Haloarcula hispanica” (Extremophiles, 2024)", "molecules": {"B1": {"name": "fructose-1-phosphate kinase (1-PFK) from Haloarcula hispanica (enzyme, UniProt G0HX83 1-302, looked up)", "chain": "MIVTVTYNPAVDQTIQFDEQMAPDRVMRADEAQFDAGGKGINAAQFLTAMDRPCVATGLLGGFTGSFIRETLQDDGVETAFVDVDGTTRLNTTAIAAAGEYKLNQAGPTVGESVVDALLEQVRAQSPDRVLIGGSLPPGLSPNAIDRIAAGGDWETIVDTGGDVLRELDAQYGLCKPNRAELGDATGADVSTVEGCADAADAFRDRGFDRVLASLGADGAVLVGDTGRLYAEALDINVVDTVGAGDALLSGVLSAWEAGADDETALRTGVAVSSQVVQRAGTAVPDLNDIGSLRDGVTVRQL", "notes": "fructose-1-phosphate kinase of Haloarcula hispanica, gene fruK (HAH_1077), amplified from genomic DNA; subunits of 31.2 kDa; The gene was cloned into pTA963 with 6 x CAC fused to its 5' end (N-terminal 6 x His tag); also called F1P kinase; fruK; not shown: His6, N-terminal, kept"}, "B2": {"name": "SorDH (Haloarcula hispanica ATCC 33960) (protein)", "chain": "MRTAVLVEPNEFELEDRPRPSPGPDDVLVAVRDVGICGSDVHYYEHGRIGDYVVEDPLVLGHESAGEVVEVGENVTHHEPGDRVALEPGVPCRRCAHCKRGDYHLCEEVTFMATPPHDGAFTEYVSWPADFAYTLPEAVSTAEGALCEPLSVGIHACRRGSVGTGDTVLITGAGPIGLMVLEAARAAGATDVILTDVVDEKLTFAEERGADLTVNVTETDLDAAVAEYTDGVGADVVVEASGAEPSIKSTIDVVRRGGTVVLVGLASEAEVPIDVLELIDNEVDVHGSFRYKNTYDAAVDLLADGEVDVEGIIDFESELEDIDDAFRRAMEPTVVKGMISLDS", "notes": "full-length gene from genomic DNA, N-terminal 6xHis tag, expressed in Haloferax volcanii H1209 (pTA963), Ni-NTA and size exclusion"}, "B3": {"name": "KHK (Haloarcula marismortui ATCC 43049) (protein)", "chain": "MDEETRRAVATADEALPTSDALPDAIDTGRVVFGFDGYLDRVREVVADRIDPESHERLATLESFGDRIDRSVAADSSLSFEWLQQGSRTGGHTSHLARAFGGWSFDPVMVGMYGDPVHDAFETEFGEYELHSLGEPGVTDAVEFDDGKLMLTEIGDTMSLDWAELDTAFGHDRLAEKLDGASLLGTGYWSETPDLPTVFDGLRTLWDGIDDPPETVLVDPGDVRKLDADRLRAGREAIGRLDEVTDVVVTSNRAETGVLADAYAGDAERSFADDAEAVFEALEPTWFVGHGVEQSVVVTAAGTDSVAVPSVSDPELTTSSGDHFNAGLGLARIADLSPAAAVVVGNAVAGYFVRTADQPSLADVRAFVDEYLEKF", "notes": "full-length gene from genomic DNA, N-terminal 6xHis tag, expressed in Haloferax volcanii H1209 (pTA963)"}, "B4": {"name": "MtlDH (Haloarcula hispanica ATCC 33960) (protein)", "chain": "MRASTLTDVGEITVEERDRPDPADDEVLVQVGACSVCMTDYHMYHGTFAAETPLVLGHEGAGTVAEVGADVEGFAVGDRVAINPTVPCNACSYCKKGETHLCENNTSIGGAGDTILDGAFAEYVRVPAINVEDIGEMSFERAALAEPLACCVHGVEQTDIKPGDSVGIIGAGPIGLLLLQAFRNAGAAPIVVSELDDERRELAADLGADAVVDPNEEDPEEAICAAAGGPVDVGAEAIGLVPTIKQANAVTASGGSTLIFGVPDQEATMEISPFDVFFDEVDYRGSFSLTTEDFERAITLLRHERIDAETLITERIGLDDLPTAFERMGNAEGLKKVVVPGDSE", "notes": "as for B2"}}, "key": {"[1]": {"molecular_target": "ketohexokinase (KHK) from Haloarcula marismortui (Haloarcula marismortui)", "test": "SEC; native molecular mass on a size exclusion column (superdex HiLoad 16/600 200 pg) calibrated with proteins from the HMW and LMW kits; purified His-tagged enzyme"}, "[2]": {"molecular_target": "the molecule itself", "test": "SEC; native molecular mass on a size exclusion column (superdex HiLoad 16/600 200 pg) calibrated with proteins from the HMW and LMW kits; purified His-tagged enzyme"}, "[3]": {"substrate": "Nc1ncnc2c1ncn2[C@@H]1O[C@H](COP(=O)(O)OP(=O)(O)OP(=O)(O)O)[C@@H](O)[C@H]1O", "test": "coupled pyruvate kinase / lactate dehydrogenase photometric assay, Michaelis-Menten fit", "assay_type": "biochemical, Haloarcula hispanica", "settings": "50 mM Tris-HCl, 1.5 M KCl, pH 7.5, 4 mM fructose-1-phosphate, 10 mM MgCl2, 37 °C"}, "[4]": {"substrate": "OC[C@@H](O)[C@@H](O)[C@H](O)[C@@H](O)CO", "test": "photometric NADH assay, Michaelis-Menten fit", "assay_type": "biochemical, Haloarcula hispanica", "settings": "50 mM Tris-HCl, 1.5 M KCl, 37 °C"}, "[5]": {"substrate": "NC(=O)c1ccc[n+]([C@@H]2O[C@H](COP(=O)(O)OP(=O)(O)OC[C@H]3O[C@@H](n4cnc5c(N)ncnc54)[C@H](O)[C@@H]3O)[C@@H](O)[C@H]2O)c1", "test": "photometric NADH assay, Michaelis-Menten fit", "assay_type": "biochemical, Haloarcula hispanica", "settings": "50 mM Tris-HCl, 1.5 M KCl, 37 °C, varied: cofactor"}, "[6]": {"substrate": "Nc1ncnc2c1ncn2[C@@H]1O[C@H](COP(=O)(O)OP(=O)(O)OP(=O)(O)O)[C@@H](O)[C@H]1O", "test": "coupled pyruvate kinase / lactate dehydrogenase photometric assay, Michaelis-Menten fit", "assay_type": "biochemical, Haloarcula marismortui", "settings": "100 mM Tris-HCl, 1.5 M KCl, pH 7.5, 20 mM fructose, 10 mM MgCl2, 37 °C"}, "[7]": {"substrate": "OC[C@@H](O)[C@@H](O)[C@H](O)[C@H](O)CO", "test": "photometric NADH assay, Michaelis-Menten fit", "assay_type": "biochemical, Haloarcula hispanica", "settings": "50 mM Tris-HCl, 1.5 M KCl, pH 7.5, 1 mM MnCl2, 1 mM NAD+, 37 °C"}}, "data": [{"molecule": "ketohexokinase (KHK) from Haloarcula marismortui (enzyme)", "values": [{"measurement": "stoichiometry N", "setting": "[1]", "value": 2}]}, {"molecule": "B1", "values": [{"measurement": "stoichiometry N", "setting": "[2]", "value": 2}, {"measurement": "Km", "setting": "[3]", "value": "0.06 ± 0.004", "unit": "mM"}]}, {"molecule": "B2", "values": [{"measurement": "Km", "setting": "[4]; pH 7.5, 1 mM MnCl2, 2 mM NAD+", "value": "14.7 ± 7.8", "unit": "mM"}, {"measurement": "Km", "setting": "[5]; pH 7.5, 1 mM MnCl2, 15 mM sorbitol", "value": "1.2 ± 0.35", "unit": "mM"}]}, {"molecule": "B3", "values": [{"measurement": "Km", "setting": "[6]", "value": "1.29 ± 0.12", "unit": "mM"}]}, {"molecule": "B4", "values": [{"measurement": "Km", "setting": "[4]; pH 7.5, 1 mM MnCl2, 1 mM NAD+, sorbitol up to 100 mM", "value": "27.6 ± 2.66", "unit": "mM"}, {"measurement": "Km", "setting": "[5]; pH 7.5, 1 mM MnCl2, 10 mM mannitol", "value": "0.42 ± 0.03", "unit": "mM"}, {"measurement": "Km", "setting": "[7]", "value": "2.6 ± 0.27", "unit": "mM"}]}]}
